This is an account of results in PMC3396760.

The nature of this data set: in-culture cell surface labelling with cell-impermeable BG-682. Particulars: glycan lost; control: wild type SNAP-Crb3a.

B1: Crumbs3a (Crb3a): N36D (protein)
parent chain: MANPGLGLLLALGLPFLLARWGRAWGQIQTTSANENSTVLPSSTSSSSDGNLRPEAITAIIVVFSLLAALLLAVGLALLVRKLREKRQTEGTYRPSSEEQVGARVPPTPNLKLPPEERLI
As to B1, the localisation_or_trafficking entry is listed as “no change”.
